{
  "source": "patent US10058586B2",
  "about": "“Use of human small leucine zipper protein in adipocyte differentiation procedure” (Korea University Research and Business Foundation, priority 2013, dated 2018)",
  "molecules": {"B1": {"name": "sLZIP: human small leucine-zipper protein, isoform of LZIP, 354 amino acids, no transmembrane domain; GenBank FJ263669, SEQ ID NO: 1 (protein, listed as Homo sapiens)", "chain": "MELELDAGDQDLLAFLLEESGDLGTAPDEAVRAPLDWALPLSEVPSDWEVDDLLCSLLSPPASLNILSSSNPCLVHHDHTYSLPRETVSMDLESESCRKEGTQMTPQHMEELAEQEIARLVLTDEEKSLLEKEGLILPETLPLTKTEEQILKRVRRKIRNKRSAQESRRKKKVYVGGLESRVLKYTAQNMELQNKVQLLEEQNLSLLDQLRKLQAMVIEISNKTSSSSMYSSDTRGSLPAEHGVLSRQLRALPSEDPYQLELPALQSEVPKDSTHQWLDGSDCVLQAPGNTSCLLHYMPQAPSAEPPLEWPFPDLFSEPLCRGPILPLQANLTRKGGWLPTGSPSVILQDRYSG"}},
  "key": {"[1]": {"tested_on": "CREB element in the FABP4 enhancer region", "assay": "Electrophoretic mobility shift assay (EMSA) of His-sLZIP with FABP4 enhancer probes", "assay_type": "binding", "description": "T4 polynucleotide kinase (Promega, Madison, Wis.) was used to label 5′-terminal of oligonucleotides with [γ-^32P]ATP (Perkin Elmer, Waltham, Mass.). According to instructions of the manufacturer, unbound nucleotides were removed through tubes in a Bio-Gel P-6 spin column (Bio-Rad, Inc., Hercules, Calif.). His-sLZIP proteins were pre-incubated for 20 minutes at room temperature in a 5× binding buffer [10×GRAB, 20 mM of DTT, poly(deoxyinosinic-deoxycytidylic), Sigma, St. Louis] and radiolabeled probes. Reaction mixtures were loaded in wells of 4% nondenaturing polyacrylamide gels, and subjected to electrophoresis for 45 minutes at 180 V in a 0.5×TBE buffer. For competition experiments, a binding reaction was incubated for 30 minutes with 100-fold molar excess of unlabeled CREB binding oligonucleotides before radiolabeled oligonucleotides were added. For supershift analysis, anti-His antibodies were added to a reaction mixture on ice for additional 30 minutes.\nA DNA binding ability of sLZIP with various elements in the FABP4 enhancer region was examined. For this purpose, recombinant His-sLZIP fusion proteins (3 μg) were incubated with γ-^32P-labeled oligonucleotide probes containing expected CREB binding elements (FIG. 7B). The γ-^32P-labeled oligonucleotide probes were incubated while an amount of purified His-sLZIPs was increased. For competition analysis, unlabeled CREB oligonucleotide probes of 100-fold excess were used and His antibodies were added to a reaction mixture on ice for additional […] (FIG. 7C). His-sLZIP proteins were subjected to EMSA using wild type and CREB mutant (TGATGTCA→TGGGGTCA) probes (FIG. 7D). 293T cells were temporarily transfected with PPARγ2 (0.5 μg), β-galactosidase (0.1 μg), FABP4 enhancer-luciferase reporter genes (0.2 μg) and sLZIP mutants at different contents (0.1 to 0.5 μg). After the transfection, the cells were stimulated with 10 nM of RZD (FIG. 7F). A luciferase activity was normalized to a β-galactosidase activity and represented as a relative activity (fold change). All experiments were repeated three times, and bars in the graph represent mean±standard deviation. ChIP analysis was performed using HA-sLZIP-specific antibodies and then PCR was performed. Input chromatins or immunoprecipitated chromatins were subjected to PCR and used as a control group for variables."}, "PPARγ2 and HDAC3": {"target": "T1, PPARγ2 and HDAC3 (Homo sapiens, UniProt P37231)", "T1 construct": "expressed in transfected cells; host or cells: 293T cells", "T1 sequence (P37231 1-505)": "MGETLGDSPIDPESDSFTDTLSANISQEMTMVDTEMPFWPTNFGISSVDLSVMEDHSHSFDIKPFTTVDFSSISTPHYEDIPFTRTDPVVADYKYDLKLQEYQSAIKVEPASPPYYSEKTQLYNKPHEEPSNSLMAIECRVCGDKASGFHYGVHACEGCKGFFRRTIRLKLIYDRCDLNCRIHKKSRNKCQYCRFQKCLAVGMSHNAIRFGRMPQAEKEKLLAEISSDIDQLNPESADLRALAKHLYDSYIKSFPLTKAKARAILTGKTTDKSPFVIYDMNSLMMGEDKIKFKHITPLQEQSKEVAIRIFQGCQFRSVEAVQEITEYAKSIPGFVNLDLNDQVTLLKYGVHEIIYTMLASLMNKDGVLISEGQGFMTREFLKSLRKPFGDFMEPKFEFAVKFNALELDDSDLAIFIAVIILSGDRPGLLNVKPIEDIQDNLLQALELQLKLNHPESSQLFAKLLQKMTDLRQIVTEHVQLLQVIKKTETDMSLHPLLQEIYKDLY", "assay": "GST pull-down of GST-HDAC3, Myc-PPARγ2 and Flag-sLZIP in 293T cells", "assay_type": "binding", "details": "in the presence of ligand (10 nM RZD)", "description": "Therefore, in order to understand a regulation mechanism of sLZIP in the PPARγ2 transcriptional activity by binding to the FABP4 promoter region, an effect of sLZIP on the interaction between PPARγ2 and HDAC3 was examined. For this purpose, 293T cells were transfected with GST-HDAC3, Myc-PPARγ2 and Flag-sLZIP, and were treated or not treated with 10 nM of RZD for 24 hours. Cell lysates were subjected to GST pull-down analysis using a glutathione 4B bead, and a protein complex was analyzed in SDS-PAGE, and then immunoblotted with anti-GST, anti-Myc and anti-Flag antibodies (FIG. 6A). GST-HDAC3, GST-PPARγ2, Myc-PPARγ2, Flag-sLZIP and Ha-UB were expressed in the 293T cells, and the cells were treated with 10 nM of RZD for 24 hours. Cell lysates were subjected to GST pull-down analysis (FIG. 6B). GST-PPARγ2 and Flag-sLZIP were expressed in the 293T cells and treated with 10 nM of RZD for 24 hours. Cell lysates were subjected to GST pull-down analysis, and a protein complex was analyzed in SDS-PAGE, and then immunoblotted with anti-PGC1α, anti-GST and anti-Flag antibodies (FIG. 6C)."}},
  "data": [
    {"molecule": "B1", "values": [
      {"measurement": "DNA binding to CREB element (EMSA, cold competition)", "setting": "[1]; 100-fold excess unlabeled CREB probes", "result": "not bound to the CREB element when there were competitors"},
      {"measurement": "DNA binding to CREB mutant probes (EMSA)", "setting": "[1]; CREB mutant TGATGTCA→TGGGGTCA", "result": "not bound to CREB mutant probes"},
      {"measurement": "supershift (EMSA)", "setting": "[1]; His antibodies added", "result": "supershifted"},
      {"measurement": "DNA binding to elements in the FABP4 enhancer region (EMSA)", "setting": "[1]; His-sLZIP 3 μg, labeled probes", "result": "directly bound to a CREB region"},
      {"measurement": "DNA binding ability with CREB element (EMSA)", "setting": "[1]; increasing amount of purified His-sLZIP", "result": "increased in a concentration-dependent manner"},
      {"measurement": "effect on interaction between PPARγ2 and HDAC3 (GST pull-down)", "setting": "PPARγ2 and HDAC3", "result": "enhanced interaction between PPARγ2 and HDAC3"}
    ]}
  ]
}
